We go through nine molecules from patent US20150307590A1 (GOVERNORS OF THE UNIVERSITY OF ALBERTA, published 2015).

Positions count from the first letter of the chain named.

The chains are these.
T1: human IL-28R alpha subunit (human, UniProt Q8IU57 21-228, limits assumed)
T1 construct: also called IL28R1; IL-28R1
T1 sequence: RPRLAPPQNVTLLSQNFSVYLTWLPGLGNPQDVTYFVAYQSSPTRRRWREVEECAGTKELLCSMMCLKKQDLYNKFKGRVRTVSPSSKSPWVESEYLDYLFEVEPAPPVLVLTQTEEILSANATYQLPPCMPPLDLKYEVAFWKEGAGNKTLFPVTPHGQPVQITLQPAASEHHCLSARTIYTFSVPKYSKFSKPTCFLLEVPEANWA

B1: human IL-29 (ligand)
chain: GPVPTSKPTTTGKGCHIGRFKSLSPQELASFKKARDALEESLKLKNWSCSSPVFPGNWDLRLLQVRERPVALEAELALTLKVLEAAAGPALEDVLDQPLHTLHHILSQLQACIQPQPTAGPRPRGRLHHWLHRLQEAPKKESAGCLEASVTFNLFRLLTRDLKYVADGNLCLRTSTHPEST
notes: also called IFN-λ1; interferon-lambda-1
B2: human IL-28A (ligand)
chain: VPVARLHGALPDARGCHIAQFKSLSPQELQAFKRAKDALEESLLLKDCRCHSRLFPRTWDLRQLQVRERPMALEAELALTLKVLEATADTDPALVDVLDQPLHTLHHILSQFRACIQPQPTAGPRTRGRLHHWLYRLQEAPKKESPGCLEASVTFNLFRLLTRDLNCVASGDLCV
notes: also called IFN-λ2; interferon-lambda-2
B3: human IL-28B (ligand)
chain: B2 chain with H7R, R49K, H51R, M71V, V95G, F112L, Y135H
notes: also called IFN-λ3; interferon-lambda-3

The first assay concerns the target T1, human IL-28R alpha subunit. The assay is described as follows: ELISA (right panel).
For the molecule ELASFKKARDALEESLKL (also called 28pep1; Pep1) [Peptide 1 (IL29-1)], the binding result is listed as “binds”.

For EATADTDPALGDVLDQPL (also called 28pep18) [Peptide 18 (IL28BT-3)], the binding result was “binds”.

Consider ELQAFKRAKDALEESLLL (also called 28pep2; Pep2) [Peptide 2 (IL28-1)], for which the binding result was “binds”.

KLKNWSCSSPVFPGNWDLRL (also called 28pep17; p17) [Peptide 17 (IL29T-2)]: the binding result is on record as “binds”.

Consider LLKDCKCRSRLFPRTWDLRQ (also called 28pep15) [Peptide 15 (IL28BT-2)], for which the binding result was “binds”.

As to LLKDCRCHSRLFPRTWDLRQ (also called 28pep16) [Peptide 16 (IL28AT-2)], the binding result is recorded as “binds”.

In another assay the target is T1, human IL-28R alpha subunit. As to the kind of experiment: Biacore assay (left panel), n=6.
As to B1, the binding result is “binds”.

Regarding B2, the binding result was “binds”.

On to B3, for which the binding result was “binds”.
